Reference: patent publication US20130071835A1, “Qualitative and Quantitative Analytical Method for Analyzing the Activity Type of an Enzyme that is Activated by Proteolysis” (Nanoenteck, Inc., priority 2010, published 2013)

Biological target: T1, Lp-PLA2 (Homo sapiens, UniProt Q13093)
T1 construct: purchased diaDexus, USA
T1 sequence (Q13093 22-441): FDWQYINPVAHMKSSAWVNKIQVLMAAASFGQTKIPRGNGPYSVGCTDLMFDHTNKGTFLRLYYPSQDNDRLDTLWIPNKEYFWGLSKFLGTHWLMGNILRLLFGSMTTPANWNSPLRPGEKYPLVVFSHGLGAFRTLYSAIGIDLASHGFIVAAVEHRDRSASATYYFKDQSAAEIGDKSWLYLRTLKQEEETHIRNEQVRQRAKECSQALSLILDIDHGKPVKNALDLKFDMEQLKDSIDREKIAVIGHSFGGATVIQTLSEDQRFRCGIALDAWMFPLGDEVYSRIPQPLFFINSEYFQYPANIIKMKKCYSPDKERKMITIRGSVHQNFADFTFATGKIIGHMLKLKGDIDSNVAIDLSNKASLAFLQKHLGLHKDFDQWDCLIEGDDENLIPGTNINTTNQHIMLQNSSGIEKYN
Experiment: Competition binding of Lp-PLA2 to Apo C-III-coated microplate (ELISA, absorbance)
Description: After Apo C-III was diluted with 100 mM carbonate buffer (pH 9.5) at a concentration of 2 μg/ml, the Apo C-III solution (100 μl) was added to each well in a microplate, which was coated at 37° C. incubator for 2 hrs. And then, the Apo C-III solution was removed from each well and 200 μl PBS supplemented with 1% BSA was added to each well. After incubation at 37° C. incubator, the solution was removed from each well that was then dried.
Tween-20 (0.05%)-containing PBS buffer (pH 7.4) was used for dilution, reaction and washing buffer in the experiment. Each 100 μl Lp-PLA2 (1 μg/ml) was added to Apo C-III-coated microplate well (FIG. 2a). Or, Lp-PLA2 and Apo C-III was diluted at a final concentration of 1 μg/ml and 0.5 μg/ml, respectively, and the solution (100 μl) was added to Apo C-III-coated microplate well (FIG. 2b). Each reaction preparation was incubated at 37° C. incubator for 50 min, and then removed from the well, followed by washing 2 times. Anti-Lp-PLA2 antibody solution (100 μl) diluted to 5 μg/ml was added to the washed well and incubated at 37° C. incubator for 50 min. The solution was removed and each well was washed 2 times. […] After 100 μl H2SO4 (2 N) was added to each washed well, the absorbance was measured. The measurement of absorbance utilized TECAN Infinit M200: wavelength measurement, 450 nm; and calibration wavelength, 620 nm. […]

## Apolipoprotein C-III [Apo C-III]
Lp-PLA2 1 μg/ml plus free Apo C-III 0.5 μg/ml added to Apo C-III-coated microplate well, Lp-PLA2 alone gave 0.208
  Final signal intensity (absorbance: Ab 620 nm), mean: 0.130
Lp-PLA2 1 μg/ml plus free Apo C-III 0.5 μg/ml, Apo C-III-coated microplate
  reduction of signal compared with sample without free Apo C-III: 37.6%
